B1: RAB11B (parent)
chain: AVPTDEARAFAEKNNLSFIETSAL

Variants of: B1
Test: protein stability index of a GFP-peptide fusion (GPS, HEK-293T) (PSI 1-6); higher = more stable
Settings: c terminus: a fixed tail appended
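Note: lentivirally expressed fusions sorted by FACS into six bins by GFP to DsRed ratio, PSI derived from sequencing read proportions per bin multiplied by bin number.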

Variant	protein stability index
AVLTDEARAFAEKNNLSFIETSAL	2.28
AVRTDEARAFAEKNNLSFIETSAL	2.1
AVKTDEARAFAEKNNLSFIETSAL	2.44
AVNTDEARAFAEKNNLSFIETSAL	3.27
AVITDEARAFAEKNNLSFIETSAL	2.63
AVSTDEARAFAEKNNLSFIETSAL	2.57
AVFTDEARAFAEKNNLSFIETSAL	1.96
AVTTDEARAFAEKNNLSFIETSAL	3.17
AVWTDEARAFAEKNNLSFIETSAL	2.91
AVYTDEARAFAEKNNLSFIETSAL	2.55
AVHTDEARAFAEKNNLSFIETSAL	2.33
AVCTDEARAFAEKNNLSFIETSAL	2.77
AVMTDEARAFAEKNNLSFIETSAL	2.43
AVVTDEARAFAEKNNLSFIETSAL	3.05
AVATDEARAFAEKNNLSFIETSAL	2.93
AVQTDEARAFAEKNNLSFIETSAL	3.16
AVDTDEARAFAEKNNLSFIETSAL	3.28
AVGTDEARAFAEKNNLSFIETSAL	2.92
AVETDEARAFAEKNNLSFIETSAL	3.33
AMPTDEARAFAEKNNLSFIETSAL	3.41
AKPTDEARAFAEKNNLSFIETSAL	2.52
ASPTDEARAFAEKNNLSFIETSAL	3.09
ATPTDEARAFAEKNNLSFIETSAL	2.62
AQPTDEARAFAEKNNLSFIETSAL	2.34

Variant	protein stability index
AAPTDEARAFAEKNNLSFIETSAL	2.55
AEPTDEARAFAEKNNLSFIETSAL	3.96
AWPTDEARAFAEKNNLSFIETSAL	2.52
AHPTDEARAFAEKNNLSFIETSAL	3.86
AGPTDEARAFAEKNNLSFIETSAL	2.74
ARPTDEARAFAEKNNLSFIETSAL	2.35
ALPTDEARAFAEKNNLSFIETSAL	3.28
AFPTDEARAFAEKNNLSFIETSAL	2.64
AIPTDEARAFAEKNNLSFIETSAL	2.74
ADPTDEARAFAEKNNLSFIETSAL	3.41
AYPTDEARAFAEKNNLSFIETSAL	2.52
ACPTDEARAFAEKNNLSFIETSAL	3.02
ANPTDEARAFAEKNNLSFIETSAL	3.85
APPTDEARAFAEKNNLSFIETSAL	3.2
AVPTDSARAFAEKNNLSFIETSAL	2.2
AVPTDAARAFAEKNNLSFIETSAL	2.45
AVPTDFARAFAEKNNLSFIETSAL	1.66
AVPTDLARAFAEKNNLSFIETSAL	2.32
AVPTDPARAFAEKNNLSFIETSAL	2.93
AVPTDHARAFAEKNNLSFIETSAL	2.61
AVPTDGARAFAEKNNLSFIETSAL	2.58
AVPTDWARAFAEKNNLSFIETSAL	2.04
AVPTDCARAFAEKNNLSFIETSAL	2.46
AVPTDTARAFAEKNNLSFIETSAL	2

Variant	protein stability index
AVPTDRARAFAEKNNLSFIETSAL	1.86
AVPTDYARAFAEKNNLSFIETSAL	1.67
AVPTDVARAFAEKNNLSFIETSAL	2.08
AVPTDQARAFAEKNNLSFIETSAL	2.24
AVPTDMARAFAEKNNLSFIETSAL	2.19
AVPTDNARAFAEKNNLSFIETSAL	2.25
AVPTDKARAFAEKNNLSFIETSAL	2.04
AVPTDIARAFAEKNNLSFIETSAL	2.71
AVPTDDARAFAEKNNLSFIETSAL	2.95
AVPTDEAMAFAEKNNLSFIETSAL	2.45
AVPTDEAIAFAEKNNLSFIETSAL	2.9
AVPTDEADAFAEKNNLSFIETSAL	3.37
AVPTDEAPAFAEKNNLSFIETSAL	2.65
AVPTDEAFAFAEKNNLSFIETSAL	2.69
AVPTDEAKAFAEKNNLSFIETSAL	3.08
AVPTDEAVAFAEKNNLSFIETSAL	3.04
AVPTDEAHAFAEKNNLSFIETSAL	2.99
AVPTDEALAFAEKNNLSFIETSAL	2.33
AVPTDEASAFAEKNNLSFIETSAL	2.46
AVPTDEACAFAEKNNLSFIETSAL	2.78
AVPTDEAEAFAEKNNLSFIETSAL	3.31
AVPTDEATAFAEKNNLSFIETSAL	2.67
AVPTDEAAAFAEKNNLSFIETSAL	2.77
AVPTDEAQAFAEKNNLSFIETSAL	2.45

Variant	protein stability index
AVPTDEANAFAEKNNLSFIETSAL	3.06
AVPTDEAYAFAEKNNLSFIETSAL	3.12
AVPTDEAGAFAEKNNLSFIETSAL	3.22
AVPTDEAWAFAEKNNLSFIETSAL	2.94
WVPTDEARAFAEKNNLSFIETSAL	2.26
TVPTDEARAFAEKNNLSFIETSAL	2.74
RVPTDEARAFAEKNNLSFIETSAL	2.26
VVPTDEARAFAEKNNLSFIETSAL	2.62
FVPTDEARAFAEKNNLSFIETSAL	2.66
MVPTDEARAFAEKNNLSFIETSAL	2.64
SVPTDEARAFAEKNNLSFIETSAL	2.65
DVPTDEARAFAEKNNLSFIETSAL	2.95
PVPTDEARAFAEKNNLSFIETSAL	3.02
GVPTDEARAFAEKNNLSFIETSAL	3.06
KVPTDEARAFAEKNNLSFIETSAL	2.57
YVPTDEARAFAEKNNLSFIETSAL	2.69
HVPTDEARAFAEKNNLSFIETSAL	2.9
EVPTDEARAFAEKNNLSFIETSAL	3.65
LVPTDEARAFAEKNNLSFIETSAL	2.67
IVPTDEARAFAEKNNLSFIETSAL	2.07
NVPTDEARAFAEKNNLSFIETSAL	2.88
QVPTDEARAFAEKNNLSFIETSAL	2.63
AVPTTEARAFAEKNNLSFIETSAL	2.13
AVPTVEARAFAEKNNLSFIETSAL	1.99

Variant	protein stability index
AVPTEEARAFAEKNNLSFIETSAL	2.82
AVPTCEARAFAEKNNLSFIETSAL	2.82
AVPTQEARAFAEKNNLSFIETSAL	2.42
AVPTIEARAFAEKNNLSFIETSAL	2.15
AVPTSEARAFAEKNNLSFIETSAL	2.33
AVPTWEARAFAEKNNLSFIETSAL	1.38
AVPTMEARAFAEKNNLSFIETSAL	2.07
AVPTLEARAFAEKNNLSFIETSAL	2.46
AVPTYEARAFAEKNNLSFIETSAL	2.08
AVPTKEARAFAEKNNLSFIETSAL	1.41
AVPTAEARAFAEKNNLSFIETSAL	2.31
AVPTGEARAFAEKNNLSFIETSAL	2.31
AVPTHEARAFAEKNNLSFIETSAL	2.61
AVPTNEARAFAEKNNLSFIETSAL	1.92
AVPTPEARAFAEKNNLSFIETSAL	1.89
AVPTFEARAFAEKNNLSFIETSAL	2.17
AVPTREARAFAEKNNLSFIETSAL	2.07
AVPTDEARAQAEKNNLSFIETSAL	3.45
AVPTDEARASAEKNNLSFIETSAL	3.28
AVPTDEARAHAEKNNLSFIETSAL	3.74
AVPTDEARAEAEKNNLSFIETSAL	4.11
AVPTDEARAAAEKNNLSFIETSAL	3.38
AVPTDEARAWAEKNNLSFIETSAL	2.34
AVPTDEARATAEKNNLSFIETSAL	3.78

Variant	protein stability index
AVPTDEARANAEKNNLSFIETSAL	3.25
AVPTDEARARAEKNNLSFIETSAL	2.74
AVPTDEARADAEKNNLSFIETSAL	4.06
AVPTDEARACAEKNNLSFIETSAL	3.1
AVPTDEARAGAEKNNLSFIETSAL	3.12
AVPTDEARAKAEKNNLSFIETSAL	2.89
AVPTDEARAPAEKNNLSFIETSAL	2.73
AVPTDEARALAEKNNLSFIETSAL	3.19
AVPTDEARAMAEKNNLSFIETSAL	2.9
AVPTDEARAVAEKNNLSFIETSAL	3.41
AVPTDEARAIAEKNNLSFIETSAL	3.33
AVPLDEARAFAEKNNLSFIETSAL	2.33
AVPVDEARAFAEKNNLSFIETSAL	2.78
AVPHDEARAFAEKNNLSFIETSAL	2.5
AVPNDEARAFAEKNNLSFIETSAL	2.65
AVPSDEARAFAEKNNLSFIETSAL	2.6
AVPFDEARAFAEKNNLSFIETSAL	2
AVPADEARAFAEKNNLSFIETSAL	2.45
AVPWDEARAFAEKNNLSFIETSAL	2.21
AVPYDEARAFAEKNNLSFIETSAL	2.37
AVPEDEARAFAEKNNLSFIETSAL	3.23
AVPDDEARAFAEKNNLSFIETSAL	3.63
AVPMDEARAFAEKNNLSFIETSAL	1.98
AVPQDEARAFAEKNNLSFIETSAL	3.05

Variant	protein stability index
AVPGDEARAFAEKNNLSFIETSAL	3.17
AVPIDEARAFAEKNNLSFIETSAL	2.77
AVPPDEARAFAEKNNLSFIETSAL	2.5
AVPCDEARAFAEKNNLSFIETSAL	2.78
AVPRDEARAFAEKNNLSFIETSAL	1.77
AVPKDEARAFAEKNNLSFIETSAL	2
AVPTDEARWFAEKNNLSFIETSAL	1.78
AVPTDEARTFAEKNNLSFIETSAL	3.02
AVPTDEARGFAEKNNLSFIETSAL	2.85
AVPTDEARRFAEKNNLSFIETSAL	2.32
AVPTDEAREFAEKNNLSFIETSAL	3.82
AVPTDEARNFAEKNNLSFIETSAL	2.52
AVPTDEARCFAEKNNLSFIETSAL	2.49
AVPTDEARDFAEKNNLSFIETSAL	3.4
AVPTDEARFFAEKNNLSFIETSAL	2.63
AVPTDEARIFAEKNNLSFIETSAL	2.45
AVPTDEARHFAEKNNLSFIETSAL	2.07
AVPTDEARPFAEKNNLSFIETSAL	2.44
AVPTDEARVFAEKNNLSFIETSAL	2.71
AVPTDEARMFAEKNNLSFIETSAL	2.79
AVPTDEARLFAEKNNLSFIETSAL	2.98
AVPTDEARQFAEKNNLSFIETSAL	3.14
AVPTDEARYFAEKNNLSFIETSAL	2.48
AVPTDEARSFAEKNNLSFIETSAL	2.33

Variant	protein stability index
AVPTDEARKFAEKNNLSFIETSAL	1.91
AVPTDEERAFAEKNNLSFIETSAL	2.92
AVPTDESRAFAEKNNLSFIETSAL	2.79
AVPTDEFRAFAEKNNLSFIETSAL	1.98
AVPTDEHRAFAEKNNLSFIETSAL	2.23
AVPTDELRAFAEKNNLSFIETSAL	2.16
AVPTDEMRAFAEKNNLSFIETSAL	2.27
AVPTDETRAFAEKNNLSFIETSAL	3.17
AVPTDEPRAFAEKNNLSFIETSAL	2.86
AVPTDEDRAFAEKNNLSFIETSAL	4.09
AVPTDEVRAFAEKNNLSFIETSAL	2.7
AVPTDEYRAFAEKNNLSFIETSAL	2.94
AVPTDEWRAFAEKNNLSFIETSAL	2.58
AVPTDERRAFAEKNNLSFIETSAL	2.6
AVPTDEKRAFAEKNNLSFIETSAL	2.5
AVPTDEIRAFAEKNNLSFIETSAL	2.39
AVPTDEGRAFAEKNNLSFIETSAL	3.14
AVPTDENRAFAEKNNLSFIETSAL	3.1
AVPTDECRAFAEKNNLSFIETSAL	2.47
AVPTDEQRAFAEKNNLSFIETSAL	3.46

Reference: the supplement of paper PMC10567573
